Measurements published in the supplement of paper PMC10065799, “High-throughput profiling of sequence recognition by tyrosine kinases and SH2 domains using bacterial peptide display” (eLife, 2023).

Assays:
Grb2 SH2 = Grb2 SH2 (UniProt P62993); assay: SH2 binding enrichment of the phosphorylated peptide, bacterial display (enrichment ratio); higher = better substrate or ligand; peptides without Tyr show the background
SHP2-C SH2 = assay: as above
c-Src SH2 = assay: as above
Fyn = Fyn (UniProt P06241); assay: phosphorylation enrichment, bacterial display (enrichment ratio); higher = better substrate or ligand; peptides without Tyr show the background
Sequence of Fyn (P06241 whole entry, looked up): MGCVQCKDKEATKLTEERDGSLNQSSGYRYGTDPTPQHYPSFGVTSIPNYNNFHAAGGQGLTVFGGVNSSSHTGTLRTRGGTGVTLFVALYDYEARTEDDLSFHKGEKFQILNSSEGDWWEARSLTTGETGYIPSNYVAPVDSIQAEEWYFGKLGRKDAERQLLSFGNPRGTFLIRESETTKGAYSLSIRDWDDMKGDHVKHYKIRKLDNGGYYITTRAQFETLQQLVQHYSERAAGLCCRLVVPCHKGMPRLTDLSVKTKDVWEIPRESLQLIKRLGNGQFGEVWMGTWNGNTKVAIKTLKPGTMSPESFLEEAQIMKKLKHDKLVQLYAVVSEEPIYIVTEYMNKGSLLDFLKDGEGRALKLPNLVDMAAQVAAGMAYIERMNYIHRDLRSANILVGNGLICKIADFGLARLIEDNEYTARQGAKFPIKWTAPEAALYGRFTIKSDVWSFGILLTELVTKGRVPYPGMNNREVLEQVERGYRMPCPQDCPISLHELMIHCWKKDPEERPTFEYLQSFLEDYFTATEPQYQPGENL

c-Abl (mouse) = assay: as above
EPHB2 = EPHB2 (UniProt P29323); assay: as above
FGFR3 = FGFR3 (UniProt P22607); assay: as above
Sequence of FGFR3 (P22607 whole entry, looked up): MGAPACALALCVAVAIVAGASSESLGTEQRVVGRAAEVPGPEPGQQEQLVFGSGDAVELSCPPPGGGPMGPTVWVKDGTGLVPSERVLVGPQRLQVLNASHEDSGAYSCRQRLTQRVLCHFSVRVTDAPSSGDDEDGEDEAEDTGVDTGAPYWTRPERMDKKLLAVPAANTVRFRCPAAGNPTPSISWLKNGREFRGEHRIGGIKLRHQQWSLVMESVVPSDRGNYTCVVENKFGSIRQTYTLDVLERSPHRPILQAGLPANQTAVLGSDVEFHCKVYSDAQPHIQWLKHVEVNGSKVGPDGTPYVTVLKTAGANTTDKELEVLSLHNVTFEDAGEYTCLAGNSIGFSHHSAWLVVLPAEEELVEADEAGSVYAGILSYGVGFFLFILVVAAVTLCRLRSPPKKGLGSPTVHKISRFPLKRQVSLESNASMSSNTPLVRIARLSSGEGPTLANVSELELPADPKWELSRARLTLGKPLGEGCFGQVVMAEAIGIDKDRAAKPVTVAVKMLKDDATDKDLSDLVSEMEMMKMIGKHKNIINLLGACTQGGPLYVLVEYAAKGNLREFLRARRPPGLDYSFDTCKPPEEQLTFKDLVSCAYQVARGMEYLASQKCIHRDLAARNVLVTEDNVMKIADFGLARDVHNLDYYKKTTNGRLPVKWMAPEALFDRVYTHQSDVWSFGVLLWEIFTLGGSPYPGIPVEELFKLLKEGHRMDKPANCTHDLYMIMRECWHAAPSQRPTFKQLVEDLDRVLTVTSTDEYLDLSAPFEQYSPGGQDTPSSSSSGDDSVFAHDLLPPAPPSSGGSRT

c-Src = assay: as above
Fer (mouse) = assay: as above
Fes = Fes (UniProt P07332); assay: as above
Sequence of Fes (P07332 whole entry, looked up): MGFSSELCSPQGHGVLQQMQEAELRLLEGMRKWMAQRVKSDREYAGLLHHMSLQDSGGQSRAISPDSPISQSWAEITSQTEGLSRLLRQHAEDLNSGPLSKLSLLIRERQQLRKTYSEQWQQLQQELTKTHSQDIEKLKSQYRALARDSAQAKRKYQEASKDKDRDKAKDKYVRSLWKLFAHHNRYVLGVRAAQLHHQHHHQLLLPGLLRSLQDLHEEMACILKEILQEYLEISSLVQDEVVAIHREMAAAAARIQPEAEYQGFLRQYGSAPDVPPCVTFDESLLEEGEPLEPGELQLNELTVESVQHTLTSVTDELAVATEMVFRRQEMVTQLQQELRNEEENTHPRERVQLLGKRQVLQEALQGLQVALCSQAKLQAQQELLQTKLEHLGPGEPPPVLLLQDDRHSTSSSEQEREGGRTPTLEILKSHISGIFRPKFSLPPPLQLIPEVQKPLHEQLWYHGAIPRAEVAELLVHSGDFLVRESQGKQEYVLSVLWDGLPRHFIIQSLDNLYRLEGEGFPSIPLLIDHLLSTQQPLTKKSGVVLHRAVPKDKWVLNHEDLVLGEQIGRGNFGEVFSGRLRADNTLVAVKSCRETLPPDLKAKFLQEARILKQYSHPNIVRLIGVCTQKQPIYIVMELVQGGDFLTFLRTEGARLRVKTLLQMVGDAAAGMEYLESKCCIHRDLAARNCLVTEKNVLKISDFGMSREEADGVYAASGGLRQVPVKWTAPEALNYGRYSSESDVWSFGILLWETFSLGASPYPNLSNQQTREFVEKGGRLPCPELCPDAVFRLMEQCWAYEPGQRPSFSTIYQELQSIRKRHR

AncSZ = assay: as above
MERTK = MERTK (UniProt Q12866); assay: as above
EPHB1 = EPHB1 (UniProt P54762); assay: as above
Sequence of EPHB1 (P54762 whole entry, looked up): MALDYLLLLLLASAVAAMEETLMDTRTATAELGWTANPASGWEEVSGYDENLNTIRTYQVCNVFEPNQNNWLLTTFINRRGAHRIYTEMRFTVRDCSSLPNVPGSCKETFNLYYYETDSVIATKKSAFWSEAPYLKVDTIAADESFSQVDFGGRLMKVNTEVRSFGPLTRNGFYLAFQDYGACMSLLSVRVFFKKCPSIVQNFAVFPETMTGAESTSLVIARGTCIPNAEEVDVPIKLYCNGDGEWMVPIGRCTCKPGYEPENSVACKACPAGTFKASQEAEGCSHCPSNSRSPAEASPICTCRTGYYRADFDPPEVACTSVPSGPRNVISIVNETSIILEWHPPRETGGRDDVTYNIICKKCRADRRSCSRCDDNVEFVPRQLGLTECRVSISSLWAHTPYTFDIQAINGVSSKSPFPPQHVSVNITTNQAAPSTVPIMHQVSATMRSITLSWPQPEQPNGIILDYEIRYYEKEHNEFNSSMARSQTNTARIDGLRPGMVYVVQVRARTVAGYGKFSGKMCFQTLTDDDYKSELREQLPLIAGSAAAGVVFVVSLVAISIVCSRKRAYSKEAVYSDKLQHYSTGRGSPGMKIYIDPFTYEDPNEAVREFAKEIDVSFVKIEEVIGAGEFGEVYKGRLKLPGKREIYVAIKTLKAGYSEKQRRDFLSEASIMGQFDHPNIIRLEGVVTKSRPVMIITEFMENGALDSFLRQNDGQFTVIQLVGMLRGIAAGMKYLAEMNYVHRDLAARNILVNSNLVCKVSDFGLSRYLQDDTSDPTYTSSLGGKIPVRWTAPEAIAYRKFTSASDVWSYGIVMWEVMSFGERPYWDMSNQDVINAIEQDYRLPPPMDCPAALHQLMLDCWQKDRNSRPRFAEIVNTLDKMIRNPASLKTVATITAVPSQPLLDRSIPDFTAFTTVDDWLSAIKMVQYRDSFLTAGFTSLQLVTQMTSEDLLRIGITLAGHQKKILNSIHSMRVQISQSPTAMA

Jak2 = Jak2 (UniProt O60674); assay: as above
Sequence of Jak2 (O60674 whole entry, looked up): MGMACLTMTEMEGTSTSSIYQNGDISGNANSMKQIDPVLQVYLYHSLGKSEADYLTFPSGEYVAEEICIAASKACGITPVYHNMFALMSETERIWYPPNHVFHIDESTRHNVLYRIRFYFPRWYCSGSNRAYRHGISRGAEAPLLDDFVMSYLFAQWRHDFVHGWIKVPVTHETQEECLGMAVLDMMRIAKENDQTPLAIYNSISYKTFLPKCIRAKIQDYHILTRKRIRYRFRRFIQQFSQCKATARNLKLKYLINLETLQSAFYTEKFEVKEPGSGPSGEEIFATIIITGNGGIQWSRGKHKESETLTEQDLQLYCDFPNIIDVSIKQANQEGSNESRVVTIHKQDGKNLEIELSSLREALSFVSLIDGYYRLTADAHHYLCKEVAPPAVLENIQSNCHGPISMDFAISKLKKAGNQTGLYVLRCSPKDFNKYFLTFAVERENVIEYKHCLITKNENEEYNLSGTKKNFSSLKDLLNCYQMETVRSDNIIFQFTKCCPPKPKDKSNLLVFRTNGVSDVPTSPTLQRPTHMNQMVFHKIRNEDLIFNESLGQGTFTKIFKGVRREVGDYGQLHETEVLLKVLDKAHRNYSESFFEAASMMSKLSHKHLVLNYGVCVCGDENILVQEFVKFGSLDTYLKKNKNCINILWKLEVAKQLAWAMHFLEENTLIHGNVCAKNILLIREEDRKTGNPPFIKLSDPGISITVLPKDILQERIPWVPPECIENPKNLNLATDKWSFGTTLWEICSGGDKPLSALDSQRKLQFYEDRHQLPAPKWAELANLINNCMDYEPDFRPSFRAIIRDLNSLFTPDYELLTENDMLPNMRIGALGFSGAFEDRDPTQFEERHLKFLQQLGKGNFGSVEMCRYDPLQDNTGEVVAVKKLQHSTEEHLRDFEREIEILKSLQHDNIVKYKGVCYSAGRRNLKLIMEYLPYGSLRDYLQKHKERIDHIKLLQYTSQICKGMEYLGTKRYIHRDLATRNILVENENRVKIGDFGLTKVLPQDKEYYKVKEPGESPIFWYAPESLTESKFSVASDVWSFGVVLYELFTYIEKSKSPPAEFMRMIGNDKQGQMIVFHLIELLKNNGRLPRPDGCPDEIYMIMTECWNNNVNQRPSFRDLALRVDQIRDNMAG

FGFR1 = FGFR1 (UniProt P11362); assay: as above
Sequence of FGFR1 (P11362 whole entry, looked up): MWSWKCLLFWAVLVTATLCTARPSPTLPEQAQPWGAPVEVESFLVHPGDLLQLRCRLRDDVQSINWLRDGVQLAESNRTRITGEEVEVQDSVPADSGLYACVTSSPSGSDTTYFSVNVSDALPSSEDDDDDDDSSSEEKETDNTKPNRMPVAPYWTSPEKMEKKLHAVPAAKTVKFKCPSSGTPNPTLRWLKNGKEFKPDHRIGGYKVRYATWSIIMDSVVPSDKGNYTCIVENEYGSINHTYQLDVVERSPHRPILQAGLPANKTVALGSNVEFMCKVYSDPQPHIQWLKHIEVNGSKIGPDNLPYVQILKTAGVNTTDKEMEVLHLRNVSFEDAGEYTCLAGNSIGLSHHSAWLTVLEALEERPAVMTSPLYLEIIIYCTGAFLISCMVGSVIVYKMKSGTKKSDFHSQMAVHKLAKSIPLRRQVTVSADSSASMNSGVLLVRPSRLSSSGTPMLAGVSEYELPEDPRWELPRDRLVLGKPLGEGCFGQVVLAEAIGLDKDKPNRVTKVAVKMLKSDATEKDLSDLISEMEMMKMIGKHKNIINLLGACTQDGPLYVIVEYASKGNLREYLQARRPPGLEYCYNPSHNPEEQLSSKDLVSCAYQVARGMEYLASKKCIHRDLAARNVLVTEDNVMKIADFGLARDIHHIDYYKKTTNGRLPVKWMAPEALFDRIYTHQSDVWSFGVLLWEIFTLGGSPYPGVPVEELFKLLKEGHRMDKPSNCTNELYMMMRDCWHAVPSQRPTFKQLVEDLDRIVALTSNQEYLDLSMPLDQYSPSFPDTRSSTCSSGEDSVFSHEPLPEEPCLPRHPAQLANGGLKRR

Hck = Hck (UniProt P08631); assay: as above
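For SH2 binding enrichment of the phosphorylated peptide, bacterial display in this document: peptide library displayed on the E. coli surface as eCPX fusions, selected cells deep-sequenced, score is each peptide's frequency after selection divided by its frequency in the input.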
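For phosphorylation enrichment, bacterial display in this document: 11-residue human phosphosite peptides and single-mutation variants displayed on the E. coli surface, counted by deep sequencing, each peptide's frequency after selection divided by its frequency in the unselected input library; frequency after pTyr selection over input frequency; kinase dosed for 20-30% of maximal phosphorylation in three min.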

SH2 binding enrichment (Grb2 SH2) | SH2 binding enrichment (SHP2-C SH2) | SH2 binding enrichment (c-Src SH2) | Sequence | phosphorylation enrichment (Fyn) | phosphorylation enrichment (c-Abl (mouse)) | phosphorylation enrichment (EPHB2) | phosphorylation enrichment (FGFR3) | phosphorylation enrichment (c-Src) | phosphorylation enrichment (Fer (mouse)) | phosphorylation enrichment (Fes) | phosphorylation enrichment (AncSZ) | phosphorylation enrichment (MERTK) | phosphorylation enrichment (EPHB1) | phosphorylation enrichment (Jak2) | phosphorylation enrichment (FGFR1) | phosphorylation enrichment (Hck)
0.963 | 1.49 | 1.19 | AELVPYYMEHH [PTPN11_Y80_Q79P] | 0.626 | 0.733 | 0.635 | 0.792 | 1.28 | 0.513 | 0.995 | 0.916 | 0.552 | 0.778 | 0.757 | 0.822 | 0.736
2.87 | 0.739 | 1.24 | MSSLYYANTLF [HOXB7_Y6] | 4.32 | 8.46 | 12.8 | 5.82 | 4.4 | 5.33 | 1.01 | 1.32 | 10.8 | 10.7 | 3.08 | 6.15 | 5.94
0.699 | 0.604 | 0.729 | PTATSYTPNLA [GABRA1_Y375] | 0.643 | 0.505 | 0.314 | 0.607 | 0.306 | 0.571 | 0.521 | 0.568 | 0.357 | 0.291 | 0.349 | 0.459 | 0.477
0.945 | 0.657 | 0.595 | LDLSFYTTSSS [EMD_Y182_P183T_YF] | 0.93 | 2.47 | 1.29 | 1.53 | 0.785 | 0.882 | 2.65 | 2.23 | 0.897 | 1.04 | 2.49 | 1.12 | 0.999
1.08 | 1.39 | 0.724 | REHTVYWEPRK [MAGEA4_Y240_G241W] | 1.39 | 8.8 | 1.19 | 2.42 | 1.85 | 0.607 | 0.831 | 1.1 | 3.77 | 4.33 | 0.888 | 2.31 | 5.92
1.1 | 0.622 | 1.01 | RLQEGYDHSFF [ESD_Y258_YF] | 0.427 | 0.728 | 0.364 | 0.57 | 0.824 | 0.422 | 0.794 | 1.12 | 0.538 | 0.457 | 0.85 | 0.52 | 0.508
7.62 | 1.12 | 1.27 | ASENVYVNTAH [CTSC_Y150_I153T] | 0.748 | 0.599 | 0.588 | 0.485 | 0.814 | 0.527 | 0.86 | 0.936 | 0.429 | 0.7 | 0.772 | 0.633 | 0.796
0.707 | 1.27 | 5.05 | RGYRVYYTPDS [PTPRF_Y450] | 0.979 | 1.3 | 1.04 | 0.634 | 0.947 | 1.11 | 1.07 | 1.22 | 3.59 | 1.24 | 1.93 | 0.784 | 1.37
0.902 | 0.799 | 5.34 | HCYNSYTYPRL [PAK7_Y316_S312C] | 0.943 | 0.932 | 0.784 | 0.884 | 0.725 | 0.684 | 1.47 | 2.4 | 2.84 | 0.775 | 1.33 | 1.35 | 0.74
0.831 | 0.737 | 0.755 | IINENYDFLKG [NUP98_Y1664_YF] | 0.426 | 0.57 | 0.726 | 0.631 | 0.495 | 0.466 | 0.903 | 0.82 | 0.602 | 0.677 | 0.761 | 0.518 | 1.19
0.852 | 0.63 | 0.58 | EQQDMYRLKVL [ABCC6_Y372_N370D] | 0.387 | 0.453 | 0.482 | 0.581 | 0.415 | 0.473 | 0.773 | 0.774 | 0.376 | 0.354 | 0.638 | 0.451 | 0.427
0.941 | 0.653 | 0.595 | QFLMKYVWSAP [ABCD1_Y337_S342P] | 0.562 | 0.749 | 0.738 | 1.03 | 0.429 | 0.836 | 1.63 | 1.68 | 0.61 | 0.834 | 1.34 | 0.634 | 0.674
0.941 | 0.27 | 0.479 | RGRKVYLEGGF [PRIM2_Y201_D204G] | 0.351 | 0.719 | 0.431 | 0.446 | 0.803 | 0.855 | 0.642 | 0.787 | 0.972 | 0.532 | 0.796 | 0.355 | 0.858
1.02 | 1.33 | 2.23 | LGQRIYQFIQS [DYRK1B_Y271_YF] | 2.42 | 1.3 | 5.42 | 1.5 | 4.15 | 10.1 | 1.26 | 0.916 | 8.85 | 11.7 | 0.725 | 2.23 | 4.98
0.799 | 0.698 | 0.579 | MALDRYVASCK [OR2B11_Y127_I130S] | 0.421 | 0.592 | 0.593 | 0.569 | 0.436 | 0.475 | 0.846 | 0.649 | 0.385 | 0.465 | 0.667 | 0.397 | 0.435

Sequence | SH2 binding enrichment (Grb2 SH2) | SH2 binding enrichment (SHP2-C SH2) | SH2 binding enrichment (c-Src SH2) | phosphorylation enrichment (Fyn) | phosphorylation enrichment (c-Abl (mouse)) | phosphorylation enrichment (EPHB2) | phosphorylation enrichment (FGFR3) | phosphorylation enrichment (c-Src) | phosphorylation enrichment (Fer (mouse)) | phosphorylation enrichment (Fes) | phosphorylation enrichment (AncSZ) | phosphorylation enrichment (MERTK) | phosphorylation enrichment (EPHB1) | phosphorylation enrichment (Jak2) | phosphorylation enrichment (FGFR1) | phosphorylation enrichment (Hck)
NFRTTYINANE [KCNH2_Y475_V476I] | 5.07 | 1.34 | 0.745 | 0.412 | 0.711 | 0.435 | 0.506 | 0.584 | 0.383 | 0.819 | 0.733 | 0.476 | 0.566 | 0.843 | 0.528 | 0.462
